Assay: yeast display, Sf9 membrane polyspecificity reagent, FACS + sequencing; frameworks hold sequencing errors
Method in brief: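 Galactose-induced (36–48 hours) yeast carrying a synthetic nanobody display library were exposed to 10% biotinylated, detergent-solubilized Sf9 membrane reagent at 4 °C for 1 hour. FACS followed streptavidin microbead enrichment, using low and high (top ~1%) gates for expression (anti-HA) and reagent binding (streptavidin). Colony PCR, MiSeq 2 × 250 sequencing and CDR-length filtering followed. Labels for polyreactivity reflect the gate of origin.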

Row | Sequence | polyreactivity (PSR sort gate)
1 | QVQLVESGGGLVQAGGSLRLSCAASGFTFLAYAMGWYRQAPGQERELVAAINSSDGTTHYADSVKGRFTISRDTAKNTVYLQMNSLKPEDTAVYYCAVSQVRTGEGYHYWGQGTQVTVSS | low polyreactivity
2 | QVQLVESGGGLVQAGGSLRLSCAASGFTFLRYAMGWYRQAPGKERELVAAISTSGGRTYYADSVKGRFTISRDNAKNTVYLQMNSLKPEDTAVYYCNAAGGYRTSPSDYWGQGTQVTVSS | high polyreactivity
3 | QVQLVESGGGLVQAGGSLRLSCAASGFTFLSNAMGWYRQAPVKERELVAGISWDAGSTNYADSVKGRVTISRDNAKNTVYLQMNSLKPEDTAVYYCNADDSTGSRFYIEYDYWGQGTQVTVSS | low polyreactivity
4 | QVQLVESGGGLVQAGGSLRLSCAASGFTFLVYAMGWYRQAPGKERELVAAITWSGDSTYYADSVKGRFTISRDNAKNTVYLQMNSLKPEDTAVYYCAAAYRYGTLYYYWGQGTQVTVSS | low polyreactivity
5 | QVQLVESGGGLVQAGGSLRLSCAASGFTFLWNAMGWYRQAPGKERELVAAINGNSGNTYYADSVKGRFTISRDNAKNTVYLQMNSLKPEDTAVYYCARRGGVRGYYGGRRSKMDYWGQGTQVTVSS | low polyreactivity
6 | QVQLVESGGGLVQAGGSLRLSCAASGFTFLYNAMGWSRQAPGKERELVASINSGGSTNYADSVKGRFTISRDNAKNTVYLQMNSLKPEDTAVYYFNAKRHVRKGDYWGQGTQVTVSS | low polyreactivity
7 | QVQLVESGGGLVQAGGSLRLSCAASGFTFLYNARGWYIQAPGKERELVASINSGGSTNYADSVKGRFTISRDNAKNTVYLQKNSLKPEDTAVYYWNAKRHVRKGDYWGQGTQVTVSS | low polyreactivity
8 | QVQLVESGGGLVQAGGSLRLSCAASGFTFNANAMGWYRQAPGKERELVSVITRSGGRTYYADSVKGGFTISRDTAKNTVYLQMNSLKPEDSAVYYCATEGPSRVYQGTDSASDYWGQGTQVTVSS | high polyreactivity
9 | QVQLVESGGGLVQAGGSLRLSCAASGFTFNAYAMGWYRQAPGKERELVAAINVSGGITYYADSVKGRFTISRDNAKNTVYLQMNSLKPEDTAVYYCARDSYYSQVYRRGYSVPWRLDYWGQGTQVTVSS | low polyreactivity
10 | QVQLVESGGGLVQAGGSLRLSCAASGFTFNDYAMGWYRQAPGKERELVAAIDWSGGRTYYADSVKGRFTISRDNAKNTVYLQLNSLKPEDTAVDYCAVEDLSHAYVQHYRYGYGYWGQGTQVTVSS | low polyreactivity
11 | QVQLVESGGGLVQAGGSLRLSCAASGFTFNFYAMGWYRQAPGKESELVASITSSGARTYYADSVKGRFTISSDNPKNTVYLQMNSLKPEDTAVYYCAARVYRYSASRAYDYWGQGTQVTVSS | high polyreactivity
12 | QVQLVESGGGLVQAGGSLRLSCAASGFTFNFYTMGWYRQAPGKERELVAAITWSGGSTYYADSVKGRFTISRDNAKNTVYLQLNSLKPEDTAVYYCAATQQSRDRRFNYWGQGTQVTVSS | high polyreactivity
13 | QVQLVESGGGLVQAGGSLRLSCAASGFTFNGYAMGWYRQAPGHERELVAGITRRGGITYYADSVKGRFTISRDNAKNTVYLPMNSLKPEDTAVYYCARDYIGHALIHHASLYYYWGQGTQVTVSS | high polyreactivity
14 | QVQLVESGGGLVQAGGSLRLSCAASGFTFNIKTKGSDRQAPGKDRELVAAITSGGNSSYADSVKGRLTISRDNAKNTVYLQMNRVKPEDTAVYYCATEDFRTDTGMYYWGQGTQVTVSS | low polyreactivity
15 | QVQLVESGGGLVQAGGSLRLSCAASGFTFNRYAMGWYRQAPGKERELVAAIRSRGGSTYYADSVKGRFTISRDNAKNTVYLQMNSLKPEDTAVYYCAARSFQFYRFDYWGQGTQVTVSS | high polyreactivity
16 | QVQLVESGGGLVQAGGSLRLSCAASGFTFNRYAMGWYRQAPGKERELVAAISRGGGSTYYADSVKGRFTISRDNAKNTVYLQMNSLKPEDTAVYYCAADTRVRTCRYGFWGQGTQVNVSS | high polyreactivity
17 | QVQLVESGGGLVQAGGSLRLSCAASGFTFNRYVMGWYRQAPGKERELVAAISGGGARTYYADSVKGRFTISRDNAKNTVYLQMNSLKPEDTAVYYCNARYKSHSVSDYYYWGQGTQVTVSS | high polyreactivity
18 | QVQLVESGGGLVQAGGSLRLSCAASGFTFNYYAMGWYRQAPGKERELVAAIDSGGNTYYADSVKGRFTISRDNAKNTVYLQMNRLKPEDTAVYYCAAYRDYQYDYWGQGTQVTVSS | low polyreactivity
19 | QVQLVESGGGLVQAGGSLRLSCAASGFTFNYYAMGWYRQAPGKERELVAGITRSGVSTNYADSVKGRFTISRDNAKNTVYLQMNSLKPEDTAGYYSAREEGRRYRGWPYVFAPQHDYWGQGTQVTVSS | high polyreactivity
20 | QVQLVESGGGLVQAGGSLRLSCAASGFTFPEYAMGWYRQAPGKERELVAAISSGDSTNYADSVKGRLTISRDNAKNTVYLQMNILKPEDTAVDYCAADYYDYYYEYEYWGQGTQVTVSS | low polyreactivity
21 | QVQLVESGGGLVQAGGSLRLSCAASGFTFPGNAMGWYRHPPGKERELVAAISSTDRTTNADSVKGRFTISRDNAKNTGYLQMNSLKPEDTAVYYCYTATRRRPRGYWGQGTQVTVSS | high polyreactivity
22 | QVQLVESGGGLVQAGGSLRLSCAASGFTFPGNAMGWYRQAPGKEREFVAAITRSSGSTSYADSVKGRFTISRDNAKNTVYLQMNSLKPEDTAVYRDYWGQGTQVTVSS | low polyreactivity

Row | Sequence | polyreactivity (PSR sort gate)
23 | QVQLVESGGGLVQAGGSLRLSCAASGFTFPKYAMGWYRQAPGKERELVAAITWSGGSTRYADSVKGRFTISRDNAKNTVYLQMNSLKPEDTAVYYCAADRRSGYSRYKYGRGDYWGQGTQVTVSS | high polyreactivity
24 | QVQLVESGGGLVQAGGSLRLSCAASGFTFPLNAMGWYRQAPGKERELVAAISGSGGSTYYADSVKGRFTISRDNAKNTVYLQMNSLKPEDTAVYYCAAGIYYWGQGTQVTVSS | low polyreactivity
25 | QVQLVESGGGLVQAGGSLRLSCAASGFTFPLNARGWYRQAPGKERELVAAITNGGTTYYADSVKGRFTISRDNAKNTVYLQMHSLKPEDTAVYYCAAYTYRYGSFKYGYWGQGTQVTVSS | low polyreactivity
26 | QVQLVESGGGLVQAGGSLRLSCAASGFTFPQYVMGGYRQAPGKERELVAAISSRGGRTYYADSVKGRFTISRDNAKNTVYLQMNSLIPEDTAVYYCAKGKRDSRAFDYWGQGTQVTVSS | high polyreactivity
27 | QVQLVESGGGLVQAGGSLRLSCAASGFTFPRNVMGWYRQAPGKERELVAAISRSGSRTSYADSVKGRFTISRDNAKNTVYLQMNSVKPEDTAVYYCATSSGVGGYAAYYYWGQGTQVTVSS | high polyreactivity
28 | QVQLVESGGGLVQAGGSLRLSCAASGFTFPRYAMGWYRQAPGKERELVAAISTSGDSTYYADSVKGRFTISRDNAKNTVYLQMNSLKPEDTAVYYCAARVVRGRYGYWGQGTQVTVSS | high polyreactivity
29 | QVQLVESGGGLVQAGGSLRLSCAASGFTFPSYAMGWYRQAPGKDREFVAGITKGGGNTYYADSVKGRFTISRDNAKNNVYLQMNSLKPEDTAVYYCAKCPLPRAGVKFDYWGQGTQVTVSS | low polyreactivity
30 | QVQLVESGGGLVQAGGSLRLSCAASGFTFPTYAMGWYRPAPGKERELVAAITRGGSTYYADSVKGRFTISRDNAKNTVYLQMNSLKPEDTAVYYCAGDDPWYEEDYWGQGTQVTVSS | low polyreactivity
31 | QVQLVESGGGLVQAGGSLRLSCAASGFTFPVYAMGWYRQAPGKEREFVAAITKSGGGTYYADSVKGRFTISRDNAKNTVYLQMNSLKPVDTAVYYCAKASRRFLTLGYDYWGQGTQVTVSS | high polyreactivity
32 | QVQLVESGGGLVQAGGSLRLSCAASGFTFPVYAMGWYRQAPGKERELVAAISRRGGRTYYADSVKGRFTISRDNAKNTVYLQMNSLKPEDTAVYYCAAQSVPYAYRLASYDYWGQGTQVTVSS | high polyreactivity
33 | QVQLVESGGGLVQAGGSLRLSCAASGFTFPVYAMGWYRQAPGKERELVAAITYNGGSTYDADSVKGRFTISRDNAKHTVYFQMNSLKPEDTAVSYCAAEVFLRSLGYWYDYWGQGTQVTVSS | high polyreactivity
34 | QVQLVESGGGLVQAGGSLRLSCAASGFTFPWYAMGWYIQAPGKERELVASISYRGDSTYYADSVKGRFTISRDNAKNTVYLQMNSLKPEDTAVYYCNKRLASYYLPGFDYWGQGTQVTVSS | low polyreactivity
35 | QVQLVESGGGLVQAGGSLRLSCAASGFTFPWYAMGWYRQAPGKERELVAAITSGGGSTYYADSVKGRFTISRYNAKNTVYLQMNSLKPEDTAVYYCATSYTKQGFRYYYWGQGTQVTVSS | high polyreactivity
36 | QVQLVESGGGLVQAGGSLRLSCAASGFTFPYNDMGWYIQARGKEREFVAAISRSGTRTYYADSVKGRFTISRDNAKHTVYLQMNSLKPEDTAVYYCNARAAGYARLGPGFDYWGQGTQVTVSS | high polyreactivity
37 | QVQLVESGGGLVQAGGSLRLSCAASGFTFPYYAMAWYRQAPGKEREVVAAISFSGGRTYYADSVMGRFTISRDNAKYTVYLQMNSLKPEDTAVYYCASYDYRNTGGGGYYYWGQGTQVTVSS | high polyreactivity
38 | QVQLVESGGGLVQAGGSLRLSCAASGFTFPYYAMGWYRQAPGKEMELVAVISGSGTRTNYADSVKGRFTISRDNAKNTVYLQMNSLKPEDTEVYYCAAYYTYLHYIYDYWGQGTQVTVSS | high polyreactivity
39 | QVQLVESGGGLVQAGGSLRLSCAASGFTFPYYAMGWYRQAPGKERDLVARISSGGSTNYADSVKGRFTISRDNAKNTVYLQMNSLKPEDTAVYYCNKVRTVTTYEYWGQGTQVTVSS | high polyreactivity
40 | QVQLVESGGGLVQAGGSLRLSCAASGFTFPYYAMGWYRQAPGKERELVAAISQGGASTRYADSVKGRFTISRDNAKNTVYLQMNSLKPEDTAVYYCAAKSRHFWMDYWGQGTQVTVSS | high polyreactivity
41 | QVQLVESGGGLVQAGGSLRLSCAASGFTFPYYAMGWYRQAPGKERELVAAISRSGTSTNYADSVKGRFTISRDNAKNTVYLQMNSLKPEDTAVYYCATARRQGKVIQYYYWGQGTQVTVSS | high polyreactivity
42 | QVQLVESGGGLVQAGGSLRLSCAASGFTFPYYAMGWYRQAPGKERELVAAISSGGRTNYADSVKGRFTISRDNAKNTVYLQMNSLKPEDTAVYYCATRSYVFAWEFNYWGQGTQVTVSS | high polyreactivity
43 | QVQLVESGGGLVQAGGSLRLSCAASGFTFPYYAMGWYRQAPGKERELVAAISTRGGSTYYADSVKGRFTISRDNAKNTVYLQMKSLKPEDTAVYYCAADPGRVTRVGVRYYYWGQGTQVTVSS | high polyreactivity

Source: the nanobody polyreactivity screen of Harvey et al. (2022)
